Measured values from paper PMC4989918.

Key:
[1] = target: Mb(BgaD_L19) displayed on yeast; assay: flow cytometry on cells
[2] = target: Mb(BgaD_L23) displayed on yeast; assay: flow cytometry on cells
[3] = target: Mb(BgaD_L14), purified monobody; assay: bead-based binding assay read by flow cytometry

Kd [1]: 600 nM
Kd [2]: 12 nM
Kd [3]: 31 nM
B1: BgaD-D, β-galactosidase from Bacillus circulans ATCC 31382 (residues 36–847), biotinylated (enzyme)
chain: GNSVSYDGERRVNFNENWRFQRETNGSIAGAQNPGFDDSSWRKLNLPHDWSIELDFNKNSLATHEGGYLDGGIGWYRKTFTIPESMKGKRISLDFDGVYMNSTTYLNGEVLGTYPFGYNAFSYDISDKLYKDGRANVLVVKVNNTQPSSRWYSGSGIYRNVYLTVTDPIHVARYGTFVTTPNLEKSIKEDRADVNIKTKISNDAAEAKQVKIKSTIYDGAGNTVQTVETEEKTAAAGTVTPFEQNTVIKQPKLWSIDKPYRYNLVTEVIVGGQTVDTYETKFGVRYFKFDENEGFSLNGEYMKLHGVSMHHDLGALGAATNARGVERQMQIMKDMGVNAIRVTHNPASPELLEAANKLGLFIIEEAFDSWAQSKKPYDYGRFFNAWAEHDIKEMVDRGKNEPAIIMWSIGNEIYDTTNAAGVETARNLVGWVKEIDTTRPTTIGEDKTRGDKVNVTPINSYIKEIFNIVDVVGLNYSENNYDGYHKQNPSWKLYGSETSSATRSRGVYTHPYQYNQSTKYADLQQSSYDNDYVGWGRTAEDAWKYDRDLKHIAGQFIWTGFDYIGEPTPYYNSYPAKSSYFGAVDTAGFPKDIFYYYQSQWKKEPMVHLLPHWNWKEGEKVRVLAYTNASKVELVLNGESLGEKNYDNKQTSWGAPYKETKDGKTYLEWAVPFKPGKLEAVAKDENGKVIARDQVVTAGEPASVRLTADRKVVKADGTDLSFITADIVDSKGIVVPDADHLITFNVTGQGELAGVDNGNASSVERYKDNKRKAFSGKALAIVQSSKLSGKITVHASVAGLSSDSTSVFTVTP
modifications: biotin on the biotin-acceptor tag (in vivo biotinylation)
